From publication PMC12272218

Biological target: T1, Uracil-DNA Glycosylase (UDG) (UniProt P12295)
T1 sequence: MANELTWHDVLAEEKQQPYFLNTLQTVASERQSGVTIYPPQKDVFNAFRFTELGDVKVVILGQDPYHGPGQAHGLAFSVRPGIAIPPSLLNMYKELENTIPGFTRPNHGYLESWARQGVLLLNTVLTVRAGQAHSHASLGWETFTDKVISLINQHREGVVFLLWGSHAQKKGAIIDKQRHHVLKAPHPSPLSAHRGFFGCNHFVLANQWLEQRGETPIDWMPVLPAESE

In the case of “uracil glycosylase inhibitor (UGI) (from UniProt P14739 1-84) (natural protein)”, the half-maximal inhibitory concentration of UGI on UDG activity, read by fluorescence of the dU-containing circular crRNA-assisted CRISPR-Cas12a system is reported as 0.087 U/mL.
